Results from the supplement of paper PMC7877785.
± gives the uncertainty stated by the source.

Assay: self-splicing fitness, log relative to wild type (ln ratio); higher = more splicing; Tetrahymena group I intron in knt gene, E. coli kanamycin selection, DiMSum; sequences stand for … in CUCUCU…GGAGGGAAAAGUUAUCAGGCAUGCACCUGGUAGCUAGUCUUUAAACCAAUAGAUUGCAUCGGUUUAAAAGGCAAGACCGUCAAAUUGCGGGAAAGGGGUCAACAGCCGUUCAGUACCAAGUCUCAGGGGAAACUUUGAGAUGGCCUUGCAAAGGGUAUGGUAAUAAGCUGACGGACAUGGUCCUAACCACGCAGCCAAGUCCUAAGUCAACAGAUCUUCUGUUGAUAUGGAUGCAGUUCACAGACUAAAUGUCGGUCGGGGAAGAUGUAUUCUUCUCAUAAGAUAUAGUCGGACCUCUCCUUAAUGGGAGCUAGCGGAUGAAGUGAUGCAACACUGGAGCCGCUGGGAACUAAUUUGUAUGCGAAAGUAUAUUGAUUAGUUUUGGAGUACUCGUGGUCG
In short: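 Library with all eight P1ex-region intron nucleotides randomised, intron inside the knt kanamycin-resistance gene on pET-22b(+), in E. coli BL21(DE3). Cells grew overnight at 37°C or 30°C on LB agar with or without 25 μg/mL kanamycin (plus 100 μg/mL carbenicillin, 50 μM IPTG, 0.2% rhamnose), in six replicate transformations. Pooled colonies were amplicon-sequenced on Illumina HiSeq 2500. DiMSum fitness is the error-weighted combination of wild-type-normalised replicate fold changes, kanamycin versus none.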

Row | Sequence | self-splicing fitness (ln) (30 °C) | self-splicing fitness (ln) (37 °C)
1 | UAAUAGCAAUAUUACGUAUA | -1.82 ± 0.17 | -1.17 ± 0.17
2 | UAAUAGCAAUAUUACGUCCA | -0.695 ± 0.1 | -0.122 ± 0.11
3 | UAAUAGCAAUAUUACGUGAA | -1.38 ± 0.1 | -1.22 ± 0.14
4 | UAAUAGCAAUAUUACGUGGC | -3.76 ± 0.35 | -2.88 ± 0.43
5 | UAAUAGCAAUAUUACGUUAU | -2.86 ± 0.21 | -1.44 ± 0.19
6 | UAAUAGCAAUAUUACGUUGC | -3.64 ± 0.23 | -2.71 ± 0.31
7 | UACAAGCAAUAUUACGAAUC | -3.62 ± 0.17 | -2.7 ± 0.22
8 | UACAAGCAAUAUUACGACCG | -0.233 ± 0.096 | 0.952 ± 0.13
9 | UACAAGCAAUAUUACGACCU | -0.732 ± 0.068 | -0.688 ± 0.086
10 | UACAAGCAAUAUUACGAGAA | -2.1 ± 0.29 | -2.42 ± 0.33
11 | UACAAGCAAUAUUACGAGCU | -3.19 ± 0.12 | -1.58 ± 0.11
12 | UACAAGCAAUAUUACGAUCG | 0.00344 ± 0.082 | 0.983 ± 0.11
13 | UACAAGCAAUAUUACGCAAC |  | -2.36 ± 0.3
14 | UACAAGCAAUAUUACGCAGU | -3.96 ± 0.27 | -3.27 ± 0.21
15 | UACAAGCAAUAUUACGCCAG | -1.5 ± 0.12 | -1.81 ± 0.15
16 | UACAAGCAAUAUUACGCCGA | -1.29 ± 0.1 | -0.999 ± 0.11
17 | UACAAGCAAUAUUACGCUAA | -1.95 ± 0.11 | -1.35 ± 0.11
18 | UACAAGCAAUAUUACGCUUG | -3.1 ± 0.23 | -2.79 ± 0.41
19 | UACAAGCAAUAUUACGGAAU | -3.62 ± 0.24 | -2.44 ± 0.25
20 | UACAAGCAAUAUUACGGCAA | -0.904 ± 0.072 | -0.0888 ± 0.088
21 | UACAAGCAAUAUUACGGCAC | -1.64 ± 0.14 | -0.345 ± 0.2
22 | UACAAGCAAUAUUACGGGAC | -2.61 ± 0.16 | -2.58 ± 0.17
23 | UACAAGCAAUAUUACGGGCC | -3.08 ± 0.23 | -2.55 ± 0.22
24 | UACAAGCAAUAUUACGUGAU | -3.16 ± 0.14 | -1.34 ± 0.14

Row | Sequence | self-splicing fitness (ln) (30 °C) | self-splicing fitness (ln) (37 °C)
25 | UACAAGCAAUAUUACGUUAG | -3.02 ± 0.11 | -2.11 ± 0.097
26 | UACAAGCAAUAUUACGUUGA | -2.72 ± 0.17 | -2.06 ± 0.15
27 | UACAAGCAAUAUUACGUUGU | -3.58 ± 0.12 | -2.99 ± 0.14
28 | UACCAGCAAUAUUACGAACC | -3.08 ± 0.2 | -1.05 ± 0.23
29 | UACCAGCAAUAUUACGAAGC | -3.64 ± 0.25 | -2.17 ± 0.18
30 | UACCAGCAAUAUUACGAGCG | -0.124 ± 0.06 | 0.206 ± 0.075
31 | UACCAGCAAUAUUACGAGGC | -4.87 ± 0.26 | -2.23 ± 0.15
32 | UACCAGCAAUAUUACGAUUU | -1.25 ± 0.076 | -0.288 ± 0.075
33 | UACCAGCAAUAUUACGCACG | 0.061 ± 0.066 | -0.903 ± 0.066
34 | UACCAGCAAUAUUACGCCAU | -3.27 ± 0.22 | -2.85 ± 0.16
35 | UACCAGCAAUAUUACGCCGG | -3.31 ± 0.22 | -3.14 ± 0.37
36 | UACCAGCAAUAUUACGCUAU | -2.45 ± 0.11 | -0.409 ± 0.089
37 | UACCAGCAAUAUUACGGACA | -0.227 ± 0.061 | 0.423 ± 0.076
38 | UACCAGCAAUAUUACGGACG | -0.177 ± 0.055 | 0.479 ± 0.088
39 | UACCAGCAAUAUUACGGCAU | -1.37 ± 0.089 | -0.029 ± 0.11
40 | UACCAGCAAUAUUACGGCCU | -0.232 ± 0.078 | 0.212 ± 0.094
41 | UACCAGCAAUAUUACGGCGC | -1.32 ± 0.073 | -0.174 ± 0.097
42 | UACCAGCAAUAUUACGGCUC | -0.179 ± 0.074 | -0.0529 ± 0.096
43 | UACCAGCAAUAUUACGGCUU | -0.562 ± 0.061 | 0.59 ± 0.097
44 | UACCAGCAAUAUUACGGGCA | -0.875 ± 0.054 | 0.469 ± 0.087
45 | UACCAGCAAUAUUACGGUGU | -3.64 ± 0.14 | -2.36 ± 0.13
46 | UACCAGCAAUAUUACGGUUG | -1.64 ± 0.067 | -0.791 ± 0.084
47 | UACCAGCAAUAUUACGUACC | -2.33 ± 0.11 | -2.23 ± 0.17
48 | UACCAGCAAUAUUACGUAUA | -0.615 ± 0.058 | -0.199 ± 0.072

Row | Sequence | self-splicing fitness (ln) (30 °C) | self-splicing fitness (ln) (37 °C)
49 | UACCAGCAAUAUUACGUCAC | -4.46 ± 0.42 | -2.32 ± 0.35
50 | UACCAGCAAUAUUACGUGCA | -0.43 ± 0.065 | 0.246 ± 0.09
51 | UACCAGCAAUAUUACGUUGC | -4.31 ± 0.32 | -2.6 ± 0.25
52 | UACGAGCAAUAUUACGACCG | -1.8 ± 0.45 | 
53 | UACGAGCAAUAUUACGAUAG | -3.66 ± 0.47 | -2.31 ± 0.42
54 | UACGAGCAAUAUUACGCAAA | -2.36 ± 0.28 | -1.67 ± 0.47
55 | UACGAGCAAUAUUACGCGAG | -2.49 ± 0.15 | -0.597 ± 0.14
56 | UACGAGCAAUAUUACGCGGG | -2.83 ± 0.22 | -2.41 ± 0.45
57 | UACGAGCAAUAUUACGCUGA | -3 ± 0.26 | -2.02 ± 0.24
58 | UACGAGCAAUAUUACGCUUG | -2.75 ± 0.32 | 
59 | UACGAGCAAUAUUACGGACC | -3.28 ± 0.24 | -3.19 ± 0.43
60 | UACGAGCAAUAUUACGGGUA | -1.64 ± 0.14 | -1.43 ± 0.14
61 | UACGAGCAAUAUUACGGUCA | -1.39 ± 0.11 | -0.173 ± 0.11
62 | UACGAGCAAUAUUACGGUGG | -3.62 ± 0.14 | -2.13 ± 0.11
63 | UACGAGCAAUAUUACGGUUG | -2.72 ± 0.13 | -2.11 ± 0.16
64 | UACGAGCAAUAUUACGUACC |  | -1.17 ± 0.36
65 | UACGAGCAAUAUUACGUCCU | -2.87 ± 0.22 | -1.38 ± 0.19
66 | UACGAGCAAUAUUACGUGAG | -3.28 ± 0.16 | -3.58 ± 0.24
67 | UACGAGCAAUAUUACGUGCG | -3.07 ± 0.15 | -1.97 ± 0.18
68 | UACGAGCAAUAUUACGUGUA | -3.39 ± 0.2 | -2.21 ± 0.16
69 | UACGAGCAAUAUUACGUUCG | -3.48 ± 0.25 | -2.76 ± 0.25
70 | UACGAGCAAUAUUACGUUUC | -2.65 ± 0.32 | -1.69 ± 0.24
71 | UACUAGCAAUAUUACGAAAA | -2.6 ± 0.35 | -2.26 ± 0.42
72 | UACUAGCAAUAUUACGAAGU | -3.85 ± 0.42 | -2.32 ± 0.41

Row | Sequence | self-splicing fitness (ln) (30 °C) | self-splicing fitness (ln) (37 °C)
73 | UACUAGCAAUAUUACGAGCA | -0.343 ± 0.12 | 0.447 ± 0.15
74 | UACUAGCAAUAUUACGCAUA | -1.99 ± 0.14 | -0.0544 ± 0.09
75 | UACUAGCAAUAUUACGCGAU | -2.84 ± 0.18 | -2.5 ± 0.18
76 | UACUAGCAAUAUUACGCGUC | -2.73 ± 0.14 | -1.81 ± 0.14
77 | UACUAGCAAUAUUACGCGUG | -1.21 ± 0.079 | -0.559 ± 0.089
78 | UACUAGCAAUAUUACGCUGG | -4.47 ± 0.39 | -1.78 ± 0.24
79 | UACUAGCAAUAUUACGCUUG | -1.44 ± 0.1 | -1.64 ± 0.14
80 | UACUAGCAAUAUUACGCUUU | -2.09 ± 0.11 | -2.16 ± 0.17
81 | UACUAGCAAUAUUACGGACU | -0.895 ± 0.12 | -0.214 ± 0.17
82 | UACUAGCAAUAUUACGGCUC | -1.67 ± 0.19 | -0.765 ± 0.18
83 | UACUAGCAAUAUUACGGUGA | -1.54 ± 0.11 | -0.0276 ± 0.12
84 | UACUAGCAAUAUUACGUAAA | -1.66 ± 0.12 | -0.614 ± 0.14
85 | UACUAGCAAUAUUACGUCAC | -3.47 ± 0.26 | 
86 | UACUAGCAAUAUUACGUCCU | -1 ± 0.13 | -1.26 ± 0.15
87 | UACUAGCAAUAUUACGUCUU | -2.11 ± 0.13 | -1.27 ± 0.14
88 | UACUAGCAAUAUUACGUGCG | -0.684 ± 0.08 | -1.31 ± 0.1
89 | UACUAGCAAUAUUACGUGGU | -2.87 ± 0.14 | -2.75 ± 0.17
90 | UAGAAGCAAUAUUACGAACC | -2.02 ± 0.24 | -0.44 ± 0.3
91 | UAGAAGCAAUAUUACGAAGU | -3.7 ± 0.4 | -1.17 ± 0.22
92 | UAGAAGCAAUAUUACGACAC | -1.77 ± 0.43 | -2.07 ± 0.25
93 | UAGAAGCAAUAUUACGAGAU | -3.64 ± 0.33 | -2.16 ± 0.23
94 | UAGAAGCAAUAUUACGAGUC | -2.76 ± 0.39 | -2.02 ± 0.33
95 | UAGAAGCAAUAUUACGAUCC | -2.25 ± 0.23 | -1.45 ± 0.3
96 | UAGAAGCAAUAUUACGCAUA | -1.55 ± 0.17 | -1.36 ± 0.12
